According to paper PMC4980769 (2016):

Columns and labels:
[1] = molecular target: AgrA full length (AgrAFL) (Staphylococcus aureus) (UniProt P0A0I7); assay: BLI; settings: domain or fragment
[2] = molecular target: AgrA full length (AgrAFL) (Staphylococcus aureus) (UniProt P0A0I7); assay: BLI; DTT; settings: domain or fragment
[3] = molecular target: AgrA full length (AgrAFL) (Staphylococcus aureus) (UniProt P0A0I7); assay: BLI; H2O2; settings: domain or fragment
[4] = molecular target: AgrA full length (AgrAFL) (Staphylococcus aureus) (UniProt P0A0I7); assay: BLI; AgrAFL (ligand) immobilised on amine reactive 2nd generation (AR2G) tips; AgrC proteins as analytes at different concentrations; 20 mM HEPES pH 7.6, 200 mM KCl, 2% glycerol; AgrC proteins incubated separately with 5 uM DTT and H2O2; Octet Data Analysis Software v 8.0
[5] = molecular target: T1, AgrA full length (AgrAFL) (Staphylococcus aureus, UniProt P0A0I7 1-238); assay: BLI
T1 chain: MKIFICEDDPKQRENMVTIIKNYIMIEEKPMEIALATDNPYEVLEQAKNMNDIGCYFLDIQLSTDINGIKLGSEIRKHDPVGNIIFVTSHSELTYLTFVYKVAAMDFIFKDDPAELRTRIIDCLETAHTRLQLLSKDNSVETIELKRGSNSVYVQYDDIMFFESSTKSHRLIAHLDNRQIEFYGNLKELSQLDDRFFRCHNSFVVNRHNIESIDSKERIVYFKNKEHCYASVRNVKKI

[6] = molecular target: T1, AgrA full length (AgrAFL); assay: BLI; DTT
[7] = molecular target: T1, AgrA full length (AgrAFL); assay: BLI; H2O2

recombinant AgrC Y223C protein
Kd [1]: 105 nM | Kd [2]: 44.9 nM | Kd [3]: 31.4 nM

recombinant AgrC Y223C protein (domain or fragment)
fold reduction in binding affinity against wild-type AgrC [4]: < 10 fold

B1: recombinant wild-type AgrC (cytosolic domain) (domain or fragment)
chain: KEMKYKRNQEEIETYYEYTLKIEAINNEMRKFRHDYVNILTPLSEYIREDDMPGLRDYFNKNIVPMKDNLQMNAIKLNGIENLKVREIKGLITAKILRAQEMNIPISIEIPDEVSSINLNMIDLSRSIGIILDNAIEASTEIDDPIIRVAFIESENSVTFIVMNKCADDIPRIHELFQESFSTKGEGRGLGLSTLKEIADNADNVLLDTIIENGFFIQKVEIINN
Kd [5]: 93.1 nM | Kd [6]: 99.8 nM | Kd [7]: 4.21 nM
